# Assay results as given in patent US7858322B2, “Method of determining inhibition of binding to TRPM7 protein” (NoNo, Inc., priority 2003, dated 2010).
# No end group written: not given here. *: point of attachment. Biotin = O=C1N[C@H]2[C@H](CS[C@H]2CCCCC(=O)*)N1
# What was measured:
# Test in all cases: G assays, titrations or binding assays of peptides
# [1] = target: T1, Syntrophin 1 alpha d1 (Homo sapiens, UniProt Q13424); conditions: peptide demonstrated to bind syntrophin 1 alpha d1 in G assays
# T1 construct: made in house; host or cells: E. coli (DH5α, BL21 or JM109)
# T1 sequence (Q13424 84-177): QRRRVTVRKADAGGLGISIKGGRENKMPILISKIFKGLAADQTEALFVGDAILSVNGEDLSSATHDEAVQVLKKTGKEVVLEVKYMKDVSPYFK
# Method: In one aspect, the invention provides an assay in which a GST/PDZ fusion protein is immobilized on a surface (G assay). The binding of labeled PL peptide (e.g., as listed in TABLE 2 and TABLE 4) to this surface is then measured. In a preferred embodiment, the assay is carried out as follows:
# (1) A PDZ-domain polypeptide is bound to a surface, e.g. a protein binding surface. In a preferred embodiment, a GST/PDZ fusion protein containing one or more PDZ domains is bound to a polystyrene 96-well plate. […] In one embodiment, the GST/PDZ fusion protein is bound via an anti-GST antibody that is coated onto the 96-well plate. Adequate binding to the plate can be achieved when: • a. 100 μl per well of 5 μg/ml goat anti-GST polyclonal antibody (Pierce) in PBS is added to a polystyrene 96-well plate (e.g., Nunc Polysorp) at 4° C. for 12 hours. • b. The plate is blocked by addition of 200 μl per well of PBS/BSA for 2 hours at 4° C. • c. The plate is washed 3 times with PBS. • d. 50 μl per well of 5 μg/ml GST/PDZ fusion protein) or, as a negative control, GST polypeptide alone (i.e. not a fusion protein) in PBS/BSA is added to the plate for 2 hours at 4° C. • e. the plate is again washed 3 times with PBS.
# (2) Biotinylated PL peptides are allowed to react with the surface by addition of 50 μl per well of 20 μM solution of the biotinylated peptide in PBS/BSA for 10 minutes at 4° C., followed by an additional 20 minute incubation at 25° C. The plate is washed 3 times with ice cold PBS.
# (3) The binding of the biotinylated peptide to the GST/PDZ fusion protein surface can be detected using a variety of methods and detectors known to one of skill in the art. In one embodiment, 100 μl per well of 0.5 μg/ml streptavidin-horseradish peroxidase (HRP) conjugate dissolved in BSA/PBS is added and allowed to react for 20 minutes at 4° C. The plate is then washed 5 times with 50 mM Tris pH 8.0 containing 0.2% Tween 20, and developed by addition of 100 μl per well of HRP-substrate solution (TMB, Dako) for 20 minutes at room temperature (RT). The reaction of the HRP and its substrate is terminated by addition of 100 μl per well of 1 M sulfuric acid, and the optical density (O.D.) of each well of the plate is read at […].
# (4) Specific binding of a PL peptide and a PDZ domain polypeptide is determined by comparing the signal from the well(s) in which the PL peptide and PDZ domain polypeptide are combined, with the background signal(s). The background signal is the signal found in the negative control(s). Typically a specific or selective reaction will be at least twice background signal, more typically more than 5 times background, and most typically 10 or more times the background signal. In addition, a statistically significant reaction will involve multiple measurements of the reaction with the signal and the background differing by at least two standard errors, more typically four standard errors, and most typically six or more standard errors. Correspondingly, a statistical test (e.g. a T-test) comparing repeated measurements of the signal with repeated measurements of the background will result in a p-value <0.05, more typically a p-value <0.01, and most typically a p-value <0.001 or less. As noted, in an embodiment of the G assay, the signal from binding of a given PL peptide to immobilized (surface bound) GST polypeptide alone is one suitable negative control (sometimes referred to as B1). Because all measurement are done in multiples (i.e. at least duplicate) the arithmetic mean (or, equivalently, average.) of several measurements is used in determining the binding, and the standard error of the mean is used in determining the probable error in the measurement of the binding. The standard error of the mean of N measurements equals the square root of the following: the sum of the squares of the difference between each measurement and the mean, divided by the product of (N) and (N−1). […]
# [2] = target: T2, INADL d3 (Homo sapiens, UniProt Q8NI35); conditions: peptide demonstrated to bind INADL d3 in G assays
# T2 construct: made in house; host or cells: E. coli (DH5α, BL21 or JM109)
# T2 sequence (Q8NI35 with tags, fused parts or gaps): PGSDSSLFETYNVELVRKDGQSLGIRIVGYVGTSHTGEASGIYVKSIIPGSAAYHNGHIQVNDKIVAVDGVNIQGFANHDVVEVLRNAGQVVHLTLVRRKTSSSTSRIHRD
# Method: (§1) In one aspect, the invention provides an assay in which a GST/PDZ fusion protein is immobilized on a surface (G assay). […] In a preferred embodiment, the assay is carried out as follows:
# (§2) (3) The binding of the biotinylated peptide to the GST/PDZ fusion protein surface can be detected using a variety of methods and detectors known to one of skill in the art. In one embodiment, 100 μl per well of 0.5 μg/ml streptavidin-horseradish peroxidase (HRP) conjugate dissolved in BSA/PBS is added and allowed to react for 20 minutes at 4° C. The plate is then washed 5 times with 50 mM Tris pH 8.0 containing 0.2% Tween 20, and developed by addition of 100 μl per well of HRP-substrate solution (TMB, Dako) for 20 minutes at room temperature (RT). The reaction of the HRP and its substrate is terminated by addition of 100 μl per well of 1 M sulfuric acid, and the optical density (O.D.) of each well of the plate is read at 450 um.
# (§3) (4) Specific binding of a PL peptide and a PDZ domain polypeptide is determined by comparing the signal from the well(s) in which the PL peptide and PDZ domain polypeptide are combined, with the background signal(s). […] Typically a specific or selective reaction will be at least twice background signal, more typically more than 5 times background, and most typically 10 or more times the background signal. […] Correspondingly, a statistical test (e.g. a T-test) comparing repeated measurements of the signal with repeated measurements of the background will result in a p-value <0.05, more typically a p-value <0.01, and most typically a p-value <0.001 or less. As noted, in an embodiment of the G assay, the signal from binding of a given PL peptide to immobilized (surface bound) GST polypeptide alone is one suitable negative control (sometimes referred to as B1). Because all measurement are done in multiples (i.e. at least duplicate) the arithmetic mean (or, equivalently, average.) of several measurements is used in determining the binding, and the standard error of the mean is used in determining the probable error in the measurement of the binding. The standard error of the mean of N measurements equals the square root of the following: the sum of the squares of the difference between each measurement and the mean, divided by the product of (N) and (N−1). Thus, in one embodiment, specific binding of the PDZ protein to the platebound peptide is determined by comparing the mean signal (“mean S”) and standard error of the signal (“SE”) for a particular PL-PDZ combination with the mean B1.
# [3] = target: T3, PAR3 d3 (Homo sapiens, UniProt Q8TEW0, R682S); conditions: peptide demonstrated to bind PAR3 d3 in G assays
# T3 construct: made in house; host or cells: E. coli (DH5α, BL21 or JM109)
# Method: as §1, §2, §3
# [4] = target: T4, ZO-1 d2 (Homo sapiens, UniProt Q07157, DEL264-264); conditions: peptide demonstrated to bind ZO-1 d2 in G assays
# T4 construct: made in house; host or cells: E. coli (DH5α, BL21 or JM109)
# T4 sequence (Q07157 with tags, fused parts or gaps DEL264-264): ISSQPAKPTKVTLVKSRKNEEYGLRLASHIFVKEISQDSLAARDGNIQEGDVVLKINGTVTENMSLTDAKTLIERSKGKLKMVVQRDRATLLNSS
# Method: as §1, §2, §3
# [5] = target: T5, RIM2 d1 (Homo sapiens, UniProt Q9UQ26); conditions: peptide demonstrated to bind RIM2 d1 in G assays
# T5 construct: made in house; host or cells: E. coli (DH5α, BL21 or JM109)
# T5 sequence (Q9UQ26 632-757): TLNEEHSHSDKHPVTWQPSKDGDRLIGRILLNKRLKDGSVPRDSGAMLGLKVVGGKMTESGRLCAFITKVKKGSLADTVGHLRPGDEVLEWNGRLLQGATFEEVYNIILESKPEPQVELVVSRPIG
# Method: as §1, §2, §3
# T3 sequence (Q8TEW0 with tags, fused parts or gaps R682S): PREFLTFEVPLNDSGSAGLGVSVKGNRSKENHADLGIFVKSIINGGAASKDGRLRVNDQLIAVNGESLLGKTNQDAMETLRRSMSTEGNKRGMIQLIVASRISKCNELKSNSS
Substance,POZ domain bound [1],POZ domain bound [2],POZ domain bound [3],POZ domain bound [4],POZ domain bound [5]
AAGGRSARGGRLQGRRETAL,Syntrophin 1 alpha D1,–,–,–,–
VPGALDYAAFSSALYGESDL (Biotin-VPGALDYAAFSSALYGESDL),Syntrophin 1 alpha D1,–,–,–,–
HSCCNRARQERLQRRRETQV (Biotin-HSCCNRARQERLQRRRETQV; cysteine pairing not given here),Syntrophin 1 alpha D1,INADL D3,PAR3 D3,ZO-1 D2,–
DTLLLTENEGDKTEEQVSYV (Biotin-DTLLLTENEGDKTEEQVSYV),Syntrophin 1 alpha D1,–,PAR3 D3,–,–
AVGGRPARGGRLQGRRQTQV,Syntrophin 1 alpha D1,–,–,–,–
TQGFPGPATWRRISSLESEV (Biotin-TQGFPGPATWRRISSLESEV),Syntrophin 1 alpha D1,INADL D3,–,–,–
KKKKQPGNSTKESESTNSVRLML (Biotin-KKKKQPGNSTKESESTNSVRLML),Syntrophin 1 alpha D1,INADL D3,PAR3 D3,ZO-1 D2,RIM2 D1
YGRKKRRQRRRKLSSIESDV (Biotin-YGRKKRRQRRRKLSSIESDV),Syntrophin 1 alpha D1,–,PAR3 D3,ZO-1 D2,–
QDFRRAFRRILARPWTQTAW (Biotin-QDFRRAFRRILARPWTQTAW),Syntrophin 1 alpha D1,INADL D3,PAR3 D3,ZO-1 D2,RIM2 D1
HDFRRAFKKILARGDRKRIV (Biotin-HDFRRAFKKILARGDRKRIV),Syntrophin 1 alpha D1,INADL D3,PAR3 D3,ZO-1 D2,RIM2 D1
YGRKKRRQRRRNDNIALLVQ,Syntrophin 1 alpha D1,–,PAR3 D3,ZO-1 D2,RIM2 D1
LAVLAYSITLVMLWSIWQYA (Biotin-LAVLAYSITLVMLWSIWQYA),Syntrophin 1 alpha D1,INADL D3,PAR3 D3,ZO-1 D2,RIM2 D1
TFKGTPTAENPEYLGLDVPV (Biotin-TFKGTPTAENPEYLGLDVPV),Syntrophin 1 alpha D1,–,–,–,–
DFRPSFKHILFRRARRGFRQ (Biotin-DFRPSFKHILFRRARRGFRQ),Syntrophin 1 alpha D1,INADL D3,PAR3 D3,ZO-1 D2,RIM2 D1
ILNSIQVMRAQMNQIQSVEV (Biotin-ILNSIQVMRAQMNQIQSVEV),Syntrophin 1 alpha D1,INADL D3,PAR3 D3,ZO-1 D2,–
PYSELNYETSHYPASPDSWV (Biotin-PYSELNYETSHYPASPDSWV),Syntrophin 1 alpha D1,–,–,–,–
PIPAGGCTFSGIFPTLTSPL (Biotin-PIPAGGCTFSGIFPTLTSPL),Syntrophin 1 alpha D1,INADL D3,PAR3 D3,–,–
GRWTGRAMSAWKPTRRETEV (Biotin-GRWTGRAMSAWKPTRRETEV),Syntrophin 1 alpha D1,INADL D3,–,–,–
QISPGGLEPPSEKHFRETEV,Syntrophin 1 alpha D1,–,–,–,–
"VHDAESSOEDGYDWGPATDL: peptide, SEQ ID NO:330 (Biotin-VHDAESSDEDGYDWGPATDL)",Syntrophin 1 alpha D1,–,–,–,–
VHKVRNKFKAKCSLCRLYII (Biotin-VHKVRNKFKAKCSLCRLYII; cysteine pairing not given here),Syntrophin 1 alpha D1,INADL D3,PAR3 D3,ZO-1 D2,RIM2 D1
SSKSKSSEESQTFFGLYKL (Biotin-SSKSKSSEESQTFFGLYKL),Syntrophin 1 alpha D1,INADL D3,PAR3 D3,ZO-1 D2,RIM2 D1
FNGSSNGHVYEKLSSIESDV (Biotin-FNGSSNGHVYEKLSSIESDV),Syntrophin 1 alpha D1,–,–,–,–
RELVDRGEVRQFTLRHWLKV (Biotin-RELVDRGEVRQFTLRHWLKV),Syntrophin 1 alpha D1,INADL D3,PAR3 D3,ZO-1 D2,RIM2 D1
HHLVAQRDIRQFQLQHWLAI (Biotin-HHLVAQRDIRQFQLQHWLAI),Syntrophin 1 alpha D1,INADL D3,PAR3 D3,ZO-1 D2,RIM2 D1
TGSALQAWRHTSRQATESTV (Biotin-TGSALQAWRHTSRQATESTV),Syntrophin 1 alpha D1,–,–,–,–
